Data as given in publication PMC3476531, “Synergy of Peptide and Sugar in O-GlcNAcase Substrate Recognition” (Chemistry & Biology, 2012).
Numbering of substitutions follows the chain as printed. *: point of attachment. βGlcNAc = CC(=O)N[C@@H]1[C@@H](O)[C@H](O)[C@@H](CO)O[C@H]1*

Experiments:
[1] = molecular target: T1, human O-GlcNAcase (hOGA) Y69F (human) (UniProt O60502)
T1 sequence: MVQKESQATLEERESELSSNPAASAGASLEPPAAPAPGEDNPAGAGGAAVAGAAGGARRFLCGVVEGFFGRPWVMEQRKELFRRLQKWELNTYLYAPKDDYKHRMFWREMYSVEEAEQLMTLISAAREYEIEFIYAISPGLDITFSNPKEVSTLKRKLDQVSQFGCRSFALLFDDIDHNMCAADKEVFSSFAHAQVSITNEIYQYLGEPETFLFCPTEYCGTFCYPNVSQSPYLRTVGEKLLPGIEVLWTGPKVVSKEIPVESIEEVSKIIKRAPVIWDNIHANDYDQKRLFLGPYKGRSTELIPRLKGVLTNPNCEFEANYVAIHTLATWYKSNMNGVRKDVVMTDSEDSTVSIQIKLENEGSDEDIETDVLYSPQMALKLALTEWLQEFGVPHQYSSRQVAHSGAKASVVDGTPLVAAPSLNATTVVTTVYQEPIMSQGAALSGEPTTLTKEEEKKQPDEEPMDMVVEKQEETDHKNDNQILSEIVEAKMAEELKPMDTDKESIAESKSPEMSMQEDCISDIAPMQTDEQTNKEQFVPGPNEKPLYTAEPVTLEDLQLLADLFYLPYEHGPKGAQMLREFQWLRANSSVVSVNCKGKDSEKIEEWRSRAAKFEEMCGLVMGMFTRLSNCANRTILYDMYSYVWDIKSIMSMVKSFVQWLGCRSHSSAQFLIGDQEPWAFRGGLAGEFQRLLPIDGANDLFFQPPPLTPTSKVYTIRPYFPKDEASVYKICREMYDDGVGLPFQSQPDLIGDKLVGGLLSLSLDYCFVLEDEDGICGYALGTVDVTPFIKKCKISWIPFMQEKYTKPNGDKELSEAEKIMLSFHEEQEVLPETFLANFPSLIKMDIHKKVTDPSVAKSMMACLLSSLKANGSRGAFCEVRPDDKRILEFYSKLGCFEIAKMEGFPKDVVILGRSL

[2] = molecular target: T2, human O-GlcNAcase (hOGA), wild-type (human) (UniProt O60502)
T2 sequence: T1 sequence with F69Y

B1: TAB1 peptide PVSVPYS(O-GlcNAc)SAQSTS (peptide)
peptide: Ac-PVSVPYS(βGlcNAc)SAQSTS-NH2
SMILES: CC(=O)N[C@H]1[C@H](OC[C@H](NC(=O)[C@H](Cc2ccc(O)cc2)NC(=O)[C@@H]2CCCN2C(=O)[C@@H](NC(=O)[C@H](CO)NC(=O)[C@@H](NC(=O)[C@@H]2CCCN2C(C)=O)C(C)C)C(C)C)C(=O)N[C@@H](CO)C(=O)N[C@@H](C)C(=O)N[C@@H](CCC(N)=O)C(=O)N[C@@H](CO)C(=O)N[C@H](C(=O)N[C@@H](CO)C(N)=O)[C@@H](C)O)O[C@H](CO)[C@@H](O)[C@@H]1O
KM of the glycopeptide substrate (substrate competition assay with 4MU-GlcNAc as reporter substrate) [1]: 1100 µM | KM of the glycopeptide substrate (substrate competition assay with 4MU-GlcNAc as reporter substrate) [2]: 940 µM
